Measurements taken from the Immune Epitope Database (IEDB).

Columns and labels:
HLA-A*32:01 = assay: IEDB peptide-MHC binding, purified MHC/competitive/radioactivity; filed as Kd, often an IC50 or EC50 that approximates it; ≥ and ≤ were set here for values at or beyond the usual limits of such assays
HLA-B*57:01 [1] = assay: as above
HLA-B*58:01 [2] = assay: as above
HLA-A*02:01 [3] = assay: as above
HLA-A*02:17 = assay: as above
HLA-B*08:01 [4] = assay: as above; details: source organism: Dengue virus 1 Brazil/97-11/1997
HLA-A*02:03 = assay: as above
HLA-A*02:06 = assay: as above
HLA-A*01:01 = assay: IEDB peptide-MHC binding, purified MHC/direct/fluorescence; filed as Kd, often an IC50 or EC50 that approximates it; ≥ and ≤ were set here for values at or beyond the usual limits of such assays
HLA-A*02:01 [5] = assay: as above
HLA-A*03:01 = assay: as above
HLA-A*11:01 = assay: as above
HLA-A*26:01 = assay: as above; details: source organism: Vibrio cholerae
HLA-A*31:01 = assay: as above
HLA-A*69:01 = assay: as above
HLA-B*07:02 = assay: as above; details: source organism: Vibrio cholerae
HLA-B*08:01 [6] = assay: as above; details: source organism: Vibrio cholerae
HLA-B*27:05 = assay: as above
HLA-B*40:01 = assay: as above
HLA-B*44:02 = assay: as above; details: source organism: Vibrio cholerae
HLA-B*58:01 [7] = assay: as above
HLA-B*15:01 [8] = assay: IEDB peptide-MHC binding, purified MHC/competitive/radioactivity; filed as Kd, often an IC50 or EC50 that approximates it; ≥ and ≤ were set here for values at or beyond the usual limits of such assays; details: source organism: Dengue virus 2 Jamaica/1409/1983
HLA-B*48:01 = assay: IEDB peptide-MHC binding, purified MHC/direct/fluorescence; filed as Kd, often an IC50 or EC50 that approximates it; ≥ and ≤ were set here for values at or beyond the usual limits of such assays
HLA-B*15:01 [9] = assay: IEDB peptide-MHC binding, purified MHC/competitive/fluorescence; filed as Kd, often an IC50 or EC50 that approximates it; ≥ and ≤ were set here for values at or beyond the usual limits of such assays; details: source organism: Escherichia coli str. K-12 substr. DH10B
HLA-B*15:17 = assay: as above; details: source organism: Escherichia coli str. K-12 substr. DH10B
HLA-B*57:01 [10] = assay: as above; details: source organism: Escherichia coli str. K-12 substr. DH10B
HLA-B*18:01 = assay: IEDB peptide-MHC binding, purified MHC/direct/fluorescence; filed as Kd, often an IC50 or EC50 that approximates it; ≥ and ≤ were set here for values at or beyond the usual limits of such assays; details: source organism: Cryptosporidium parvum Iowa II
HLA-A*68:02 = assay: IEDB peptide-MHC binding, purified MHC/competitive/radioactivity; filed as Kd, often an IC50 or EC50 that approximates it; ≥ and ≤ were set here for values at or beyond the usual limits of such assays; details: source organism: Dengue virus 4 Philippines/H241/1956
[11] = source organism: Dengue virus 3 Martinique/1243/1999
[12] = source organism: Dengue virus 2 Jamaica/1409/1983
[13] = source organism: Dengue virus 4 Philippines/H241/1956
[14] = source organism: Dengue virus 1 Singapore/S275/1990
[15] = source organism: Dengue virus 1 Nauru/West Pac/1974
[16] = source organism: Dengue virus 1 Brazil/97-11/1997
[17] = source organism: Vibrio cholerae
[18] = source organism: Escherichia coli O157:H7
[19] = source organism: Dengue virus 4 Dominica/814669/1981

## RVMGITAEW
HLA-A*32:01; [11]
  Kd: 35.9 nM
HLA-B*57:01 [1]; [11]
  Kd: 2.97 nM
HLA-B*58:01 [2]; [11]
  Kd: 0.824 nM

## FLNEDHWFS
HLA-A*02:01 [3]; [12]
  Kd: 4 nM
HLA-A*02:17; [12]
  Kd: 185 nM

## ASSLLRNDVP
HLA-B*57:01 [1]; [11]
  Kd: 11600 nM
HLA-B*58:01 [2]; [11]
  Kd: 745 nM

## SSSNPTIEEG
HLA-B*58:01 [2]; [13]
  Kd: 5990 nM

## LMLLALIAVL
HLA-A*02:01 [3]; [14]
  Kd: 94.7 nM
HLA-A*02:17; [14]
  Kd: 2170 nM
HLA-B*08:01 [4]
  Kd: 2250 nM

## SLLFKTSAGV
HLA-A*02:01 [3]; [15]
  Kd: 21.6 nM
HLA-A*02:03; [16]
  Kd: 287 nM
HLA-A*02:06; [16]
  Kd: 35.8 nM
HLA-A*02:17; [15]
  Kd: 820 nM

## IHYAGWVSL
HLA-A*01:01; [17]
  Kd: ≥ 20000 nM
HLA-A*02:01 [5]; [17]
  Kd: ≥ 20000 nM
HLA-A*03:01; [17]
  Kd: ≥ 20000 nM
HLA-A*11:01; [17]
  Kd: ≥ 20000 nM
HLA-A*26:01
  Kd: ≥ 20000 nM
HLA-A*31:01; [17]
  Kd: ≥ 20000 nM
HLA-A*69:01; [17]
  Kd: ≥ 20000 nM
HLA-B*07:02
  Kd: 323 nM
HLA-B*08:01 [6]
  Kd: ≥ 20000 nM
HLA-B*27:05; [17]
  Kd: ≥ 20000 nM
HLA-B*40:01; [17]
  Kd: ≥ 20000 nM
HLA-B*44:02
  Kd: ≥ 20000 nM
HLA-B*58:01 [7]; [17]
  Kd: ≥ 20000 nM

## YQLAVTIMAI
HLA-A*02:01 [3]; [12]
  Kd: 32.3 nM
HLA-A*02:03; [12]
  Kd: 11.2 nM
HLA-A*02:06; [12]
  Kd: 11.3 nM
HLA-A*02:17; [12]
  Kd: 7840 nM
HLA-B*15:01 [8]
  Kd: 15.8 nM

## VSRDFDDVY
HLA-A*01:01; [18]
  Kd: 18600 nM
HLA-A*02:01 [5]; [18]
  Kd: ≥ 20000 nM
HLA-A*03:01; [18]
  Kd: ≥ 20000 nM
HLA-A*11:01; [18]
  Kd: ≥ 20000 nM
HLA-A*31:01; [18]
  Kd: ≥ 20000 nM
HLA-A*69:01; [18]
  Kd: ≥ 20000 nM
HLA-B*27:05; [18]
  Kd: ≥ 20000 nM
HLA-B*40:01; [18]
  Kd: ≥ 20000 nM
HLA-B*48:01; [18]
  Kd: ≥ 20000 nM
HLA-B*58:01 [7]; [18]
  Kd: ≥ 20000 nM
HLA-B*15:01 [9]
  Kd: 244 nM
HLA-B*15:17
  Kd: ≥ 20000 nM
HLA-B*57:01 [10]
  Kd: 792 nM

## YRNALSMMP
HLA-B*48:01; source organism: Yellow fever virus
  Kd: ≥ 20000 nM

## SESLPIWGI
HLA-B*18:01
  Kd: 13700 nM

## KSYAQMWTL
HLA-A*32:01; [12]
  Kd: 16.4 nM
HLA-B*57:01 [1]; [12]
  Kd: 6.59 nM
HLA-B*58:01 [2]; [12]
  Kd: 6.37 nM

## TASLVMLLVH
HLA-B*57:01 [1]; [19]
  Kd: 7390 nM
HLA-B*58:01 [2]; [19]
  Kd: 1350 nM

## TMKEKSWLV
HLA-A*02:01 [3]; [14]
  Kd: 54.7 nM
HLA-A*02:03; [16]
  Kd: 94.6 nM
HLA-A*02:17; [14]
  Kd: 40.3 nM

## TIMAVLFVV
HLA-A*02:01 [3]; [13]
  Kd: 92.6 nM
HLA-A*02:03; [13]
  Kd: 46.7 nM
HLA-A*02:06; [13]
  Kd: 127 nM
HLA-A*02:17; [13]
  Kd: 789 nM
HLA-A*68:02
  Kd: 43.4 nM
